From patent US20250250330A1 (REVOPSIS THERAPEUTICS, published 2025)

Key:
[1] = molecular target: T1, rhVEGF-D (AcroBio_VED-H5228) (human, UniProt O43915 89-205, limits assumed); experiment: ELISA: rhVEGF-D_AcroBio coated at 1 ug/mL, RO-101_Sample 1 titrated, detected with anti-human IgG Fc-gamma-HRP
T1 construct: domain: PDGF domain; Bought protein; not shown: His tag
T1 sequence (looked up): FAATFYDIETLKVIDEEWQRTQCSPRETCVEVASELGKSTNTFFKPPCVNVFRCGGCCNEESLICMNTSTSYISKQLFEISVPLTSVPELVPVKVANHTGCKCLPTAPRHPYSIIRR
Method: Different target proteins were used to coat Corning 9017 medium binding plates at 1 μg/mL and 100 μl per well. Donkey anti-human IgG Fcγ-HRP was used for detection. OD450 nm readings were measured by Victor 3.

[2] = molecular target: T2, rrANG-2 (rabbit; Speed Biosystems_YCP8015) (Rabbit, UniProt G1T9B3 19-496); experiment: ELISA on coated rabbit ANG-2
T2 construct: Bought protein; also called Rabbit ANG-2
T2 sequence: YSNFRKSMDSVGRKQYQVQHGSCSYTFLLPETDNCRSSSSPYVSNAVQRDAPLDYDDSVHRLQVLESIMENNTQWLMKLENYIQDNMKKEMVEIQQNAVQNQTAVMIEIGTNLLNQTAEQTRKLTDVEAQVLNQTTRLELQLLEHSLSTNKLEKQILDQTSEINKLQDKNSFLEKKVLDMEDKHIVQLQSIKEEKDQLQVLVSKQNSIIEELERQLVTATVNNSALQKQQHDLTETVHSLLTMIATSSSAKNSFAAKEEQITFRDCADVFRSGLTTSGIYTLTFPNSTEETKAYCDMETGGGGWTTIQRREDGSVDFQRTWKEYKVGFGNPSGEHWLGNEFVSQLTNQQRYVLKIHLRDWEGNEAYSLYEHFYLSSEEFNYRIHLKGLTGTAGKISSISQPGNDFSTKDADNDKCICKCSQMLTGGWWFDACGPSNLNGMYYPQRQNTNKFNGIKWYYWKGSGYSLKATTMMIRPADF

[3] = molecular target: T3, rhVEGF-B_Peprotech (Peprotech_100-20B) (human, UniProt P49765-2 22-188); experiment: ELISA; target coated at 1 ug/mL, anti-human IgG Fc-HRP detection
T3 construct: Bought protein
T3 sequence (looked up): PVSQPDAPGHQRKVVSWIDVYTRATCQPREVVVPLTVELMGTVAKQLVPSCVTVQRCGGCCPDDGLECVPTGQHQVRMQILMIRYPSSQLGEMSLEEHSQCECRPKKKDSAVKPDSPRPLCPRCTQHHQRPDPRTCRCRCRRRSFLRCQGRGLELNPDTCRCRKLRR
Method: First, the binding to rhVEGF-B was tested in comparison with rhVEGF₁₆₅. rhVEGF-B or rhVEGF₁₆₅ was used to coat Corning 9017 medium binding plates at 1 μg/mL and […] per well. […] Donkey anti-human IgG Fcγ-HRP was used for detection. OD450 nm readings were measured by Victor 3.

[4] = molecular target: T4, Recombinant human ANG-2 (R&D Systems, Cat #623-AN-025/CF) (human, UniProt O15123 19-496, limits assumed); experiment: ELISA on rhANG-2 by an independent team; ratio of average EC50 against Faricimab
T4 construct: also called rhANG-2
T4 sequence (looked up): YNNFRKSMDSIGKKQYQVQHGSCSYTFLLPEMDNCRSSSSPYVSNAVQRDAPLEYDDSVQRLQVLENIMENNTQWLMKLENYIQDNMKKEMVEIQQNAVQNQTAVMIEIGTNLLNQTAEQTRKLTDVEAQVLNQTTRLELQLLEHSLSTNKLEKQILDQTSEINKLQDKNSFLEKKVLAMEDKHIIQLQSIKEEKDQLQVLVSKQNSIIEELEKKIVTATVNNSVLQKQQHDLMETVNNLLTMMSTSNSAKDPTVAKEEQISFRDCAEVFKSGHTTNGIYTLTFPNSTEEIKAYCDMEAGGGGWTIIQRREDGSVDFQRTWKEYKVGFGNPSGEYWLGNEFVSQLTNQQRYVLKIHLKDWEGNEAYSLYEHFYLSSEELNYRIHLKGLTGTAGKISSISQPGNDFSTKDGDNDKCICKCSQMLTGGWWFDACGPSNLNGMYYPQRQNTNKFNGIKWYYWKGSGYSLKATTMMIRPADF

[5] = molecular target: T5, Recombinant human VEGF165 (Peprotech, Cat #100-20) (human, UniProt P15692-4 27-191); experiment: competition ELISA; IC50 ratio against Faricimab for inhibition of VEGF165-VEGF R2/KDR binding
T5 construct: Bought protein; also called rhVEGF165; rh VEGF165
Method: The mixture was added to ELISA binding plates which contained rhVEGF₁₆₅ coating. […] The receptor binding was detected by HRP-conjugated streptavidin (Jackson ImmunoResearch Laboratories, Cat #016-030-084) and visualized by TMB substrate.

binding result [1]: no binding (tested: 100 nM (Log(nM) 2))
EC50 [2]: 0.011 nM
EC50 [3]: > 100 nM
fold better than Faricimab [4]: 58 fold
Fold [5]: 3.25 fold
B1: RO-101 VEGF/ANG-2 bispecific surrobody (bispecific antibody, human IgG1, L234A L235A)
heavy 1: not shown
heavy 2: EVQLVESGGGLVKPGGSLRLSCAASGFTFSSYGMHWVRQAPGKGLEWVAGISADSGDKNYADSVKGRFTISRDNAKNSLYLQMNSLRAEDTAVYYCAKEFISWIYTFDYLDYWGQGTLVTVSSASTKGPSVFPLAPSSKSTSGGTAALGCLVKDYFPEPVTVSWNSGALTSGVHTFPAVLQSSGLYSLSSVVTVPSSSLGTQTYICNVNHKPSNTKVDKKVEPKSCDKTHTCPPCPAPEAAGGPSVFLFPPKPKDTLMISRTPEVTCVVVDVSHEDPEVKFNWYVDGVEVHNAKTKPREEQYNSTYRVVSVLTVLHQDWLNGKEYKCKVSNKALPAPIEKTISKAKGQPREPQVCTLPPSRDELTKNQVSLSCAVKGFYPSDIAVEWESNGQPENNYKTTPPVLDSDGSFFLVSKLTVDKSRWQQGNVFSCSVMHEALHNHYTQKSLSLSPG
light: QPVLHQPPAMSSALGTTIRLTCTLRNDHDIGVYSVYWYQQRPGHPPRFLLRYFSQSDKSQGPQVPPRFSGSKDVARNRGYLSISELQPEDEAMYYCAMGARSSVTHVFGSGTQLTVLSQPKATPSVTLFPPSSEELQANKATLVCLMNDFYPGILTVTWKADGTPITQGVEMTTPSKQSNNKYAASSYLSLTPEQWRSRRSYSCQVMHEGSTVEKTVAPAECS
notes: Format SgG1; also called Sample 1
